Source: patent US20120100139A1 (APTEVO RESEARCH AND DEVELOPMENT, published 2012)

T1: CD86 on cells (WIL2-S human B-lymphoblastoid cells; HuCD86-2A2 CHO cells expressing CD86) (human, UniProt P42081 24-329)
T1 construct: whole, on cells; also called cell surface CD86
T1 sequence (looked up): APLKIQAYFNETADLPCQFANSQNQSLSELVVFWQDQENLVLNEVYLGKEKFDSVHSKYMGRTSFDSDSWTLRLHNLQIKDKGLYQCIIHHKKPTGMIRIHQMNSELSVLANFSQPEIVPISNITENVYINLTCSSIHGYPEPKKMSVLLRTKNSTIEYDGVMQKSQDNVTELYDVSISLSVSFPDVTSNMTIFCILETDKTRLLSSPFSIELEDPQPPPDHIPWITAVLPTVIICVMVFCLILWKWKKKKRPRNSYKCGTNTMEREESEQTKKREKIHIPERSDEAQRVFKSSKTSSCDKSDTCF

T2: CD80-mIg (Ancell Catalog #510-020) (UniProt P33681 35-242)
T2 construct: Bought reagent; also called CD80-mIgG; sCD80
T2 sequence (looked up): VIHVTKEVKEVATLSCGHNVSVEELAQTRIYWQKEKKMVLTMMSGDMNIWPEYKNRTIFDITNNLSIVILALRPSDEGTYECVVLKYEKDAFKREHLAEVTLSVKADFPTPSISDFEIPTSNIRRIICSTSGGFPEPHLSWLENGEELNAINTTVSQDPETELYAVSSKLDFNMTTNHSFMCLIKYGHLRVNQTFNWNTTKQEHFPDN

T3: Murine CD86-mIgG (R&D Systems, Inc) (murine, UniProt P42082 24-244, limits assumed)
T3 construct: also called muCD86
T3 sequence (looked up): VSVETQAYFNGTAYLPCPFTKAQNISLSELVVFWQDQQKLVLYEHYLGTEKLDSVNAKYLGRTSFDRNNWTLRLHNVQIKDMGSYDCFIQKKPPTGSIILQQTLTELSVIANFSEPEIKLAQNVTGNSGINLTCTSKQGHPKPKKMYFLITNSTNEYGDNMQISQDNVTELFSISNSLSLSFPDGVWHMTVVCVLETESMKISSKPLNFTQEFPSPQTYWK

T4: CD86-mIgG (Ancell, Inc) (UniProt P42081 24-247, limits assumed)
T4 construct: Bought reagent
T4 sequence (looked up): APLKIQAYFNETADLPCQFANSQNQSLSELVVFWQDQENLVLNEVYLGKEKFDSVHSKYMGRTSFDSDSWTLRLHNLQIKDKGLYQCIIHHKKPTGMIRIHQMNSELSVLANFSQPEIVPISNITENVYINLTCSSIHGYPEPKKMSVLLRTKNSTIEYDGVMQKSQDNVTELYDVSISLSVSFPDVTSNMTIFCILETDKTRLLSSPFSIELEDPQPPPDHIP


Legend:
[1] = molecular target: T1, CD86 on cells (WIL2-S human …); experiment: flow cytometry, supernatants of transfected HEK293 cells on HuCD86-2A2 cells
Protocol: Briefly, WIL2-S or HuCD86-2A2 cells were incubated with test molecules containing a CD86 antagonist at concentrations ranging from saturation to background levels. […] After the incubation, cells were washed and a fluorophore (R-phycoerythrin) tagged F(Ab′)₂ antibody specific for the Fc portion of the xceptor molecule, IL10R-Ig fusion protein, or anti-IL10 antibody. The tagged cells were then passed through a flow cytometer and data was analyzed by plotting median fluorescence intensity of each sample.
In another experiment, different versions of humanized FUN1 SMIPs were tested for CD86 binding. Supernatants of HEK293 cells transiently transfected with the six different versions of humanized FUN1 SMIPs were examined for CD86 binding using HuCD86-2A2 cells.

[2] = molecular target: T2, CD80-mIg (Ancell Catalog #510-020); experiment: SPR (BIAcore T100), CD80-mIgG immobilized on CM5; steady-state equilibrium fit
Protocol: (§1) Surface plasmon resonance (SPR) measurements were performed on a BIAcore™ T100 SPR (Pharmacia Biotech AB, Uppsala) using HBS-EP+ (GE Healthcare) as a running buffer. […] CTLA4-containing constructs were injected for 150 seconds, at a flow rate of 10 μl/min, in a series of concentrations from 5 nM to 1 μM. Dissociation was monitored for 600 seconds, and the surface was regenerated by injecting 50 mM sodium citrate, 500 mM sodium chloride, pH 4.0, for 60 seconds. […] Data were analyzed using BiaEvaluation for the T100 software (version 2.0.1, GE Healthcare).

[3] = molecular target: T3, Murine CD86-mIgG (R&D Systems, Inc); experiment: SPR (BIAcore T100), murine CD86-mIgG immobilized on CM5; bivalent analyte model, second site
Protocol: (§2) SPR measurements were performed on a BIAcore™ T100 SPR (Pharmacia Biotech AB, Uppsala) using HBS-EP+ (GE Healthcare) as a running buffer. Murine CD86-mIgG (25 μg/mL in 10 mM sodium acetate, pH 4.0, R&D Systems, Inc) was directly immobilized onto a CM5 chip using standard amine coupling chemistry (Biacore Amine Coupling Kit, GE Healthcare), with final immobilization levels of 150, 493, and 746 Ru. CTLA4-containing constructs were injected for 150 seconds, at a flow rate of 10 μl/min, in a series of concentrations from 4 nM to 8 μM. Dissociation was monitored for 600 seconds (CTLA4 constructs) or 1200 seconds (GL1 constructs), and the surface was regenerated by injecting 10 mM glycine, pH 1.7, for 60 seconds. […] Data were analyzed using BiaEvaluation for the T100 software (version 2.0.1, GE Healthcare).

[4] = molecular target: T2, CD80-mIg (Ancell Catalog #510-020); experiment: SPR (BIAcore T100), CD80-mIgG immobilized on CM5; bivalent analyte model, second site
Protocol: as §1

[5] = molecular target: T3, Murine CD86-mIgG (R&D Systems, Inc); experiment: SPR (BIAcore T100), murine CD86-mIgG immobilized on CM5; bivalent analyte model, first site
Protocol: as §2

CD86-mIgG (Ancell, Inc) [6] = molecular target: T4, CD86-mIgG (Ancell, Inc); experiment: SPR (BIAcore T100), CD86-mIgG immobilized on CM5; steady-state equilibrium fit
Protocol: (§3) SPR measurements were performed on a BIAcore™ T100 SPR (Pharmacia Biotech AB, Uppsala) using HBS-EP+ (GE Healthcare) as a running buffer. […] CTLA4-containing constructs were injected for 150 seconds, at a flow rate of 10 μl/min, in a series of concentrations from 4 nM to 10 μM. Dissociation was monitored for 600 seconds, and the surface was either regenerated by injecting 50 mM sodium citrate, 500 mM sodium chloride, pH 5.0, for 60 seconds (wild type CTLA4) or 10 mM glycine, pH 1.7 (L104E A29Y CTLA4). […] Data were analyzed using BiaEvaluation for the T100 software (version 2.0.1, GE Healthcare).
SPR measurements were performed as listed above, with the following exceptions: HBS-P+ (GE Healthcare) was used as a running buffer; dissociation was monitored for 1200 seconds; and the surface was regenerated by injecting 10 mM glycine, pH 1.7, for 60 seconds.

CD86-mIgG (Ancell, Inc) [7] = molecular target: T4, CD86-mIgG (Ancell, Inc); experiment: SPR (BIAcore T100), CD86-mIgG immobilized on CM5; bivalent analyte model, first site
Protocol: as §3

[8] = molecular target: T2, CD80-mIg (Ancell Catalog #510-020); experiment: SPR (BIAcore T100), CD80-mIgG immobilized on CM5; bivalent analyte model, first site
Protocol: as §1

[9] = molecular target: T3, Murine CD86-mIgG (R&D Systems, Inc); experiment: SPR (BIAcore T100), murine CD86-mIgG immobilized on CM5; steady-state equilibrium, multiple Rmax fit
Protocol: as §2

[10] = molecular target: T3, Murine CD86-mIgG (R&D Systems, Inc); experiment: SPR (BIAcore T100), murine CD86-mIgG immobilized on CM5; steady-state equilibrium fit
Protocol: as §2

| Binder | binding result [1] | Second Site ka [3] [s⁻¹] | Second Site kd [3] [s⁻¹] | koff [5] [s⁻¹] | kon [5] [M⁻¹ s⁻¹] | further results |
| --- | --- | --- | --- | --- | --- | --- |
| FUN1-31 humanized FUN1 SMIP (Fc fusion) QVQLVESGGGLVKPGGSLRLSCAASGFTFSDYNMNWIRQAPGKGLEWVSNIDPYYGGTSYNQKFKGRFTISRDNAKNSLYLQMNSLRAEDTAVYYCARWDYRYDDGRAYYVMDFWGQGTTVTVSSGGGGSGGGGSGGGGSGGGGSDIVMTQSPDSLAVSLGERATINCKSSQSVLYSSNQKNYLAWYQQKPGQPPKLLIYWASTRESGVPDRFSGSGSGTDFTLTISSLQAEDVAVYYCHQYLYSWTFGQGTKLEIKRLEPKSSDKTHTCPPCPAPEAAGAPSVFLFPPKPKDTLMISRTPEVTCVVVDVSHEDPEVKFNWYVDGVEVHNAKTKPREEQYNSTYRVVSVLTVLHQDWLNGKAYACAVSNKALPAPIEKTISKAKGQPREPQVYTLPPSRDELTKNQVSLTCLVKGFYPSDIAVEWESNGQPENNYKTTPPVLDSDGSFFLYSKLTVDKSRWQQGNVFSCSVMHEALHNHYTQKSLSLSPG | no binding |  |  |  |  |  |
| CTLA4-Fc fusion containing the L104E A29Y mutations, analogous to belatacept (Fc fusion, the mutations are in the entry) MHVAQPAVVLASSRGIASFVCEYASPGKYTEVRVTVLRQADSQVTEVCAATYMMGNELTFLDDSICTGTSSGNQVNLTIQGLRAMDTGLYICKVELMYPPPYYEGIGNGTQIYVIDPEPCPDSDLEPKSSDKTHTCPPCPAPEAAGAPSVFLFPPKPKDTLMISRTPEVTCVVVDVSHEDPEVKFNWYVDGVEVHNAKTKPREEQYNSTYRVVSVLTVLHQDWLNGKAYACAVSNKALPAPIEKTISKAKGQPREPQVYTLPPSRDELTKNQVSLTCLVKGFYPSDIAVEWESNGQPENNYKTTPPVLDSDGSFFLYSKLTVDKSRWQQGNVFSCSVMHEALHNHYTQKSLSLSPG |  | 0.0728 | 0.168 | 0.0787 | 27800 | Kd [2]: 0.0133 µM; Second Site ka [4]: 0.00102 s⁻¹; Second Site kd [4]: 0.00332 s⁻¹; Kd (CD86-mIgG (Ancell, Inc) [6]): 0.772 µM; koff (CD86-mIgG (Ancell, Inc) [7]): 0.0102 s⁻¹; kon (CD86-mIgG (Ancell, Inc) [7]): 84700 M⁻¹ s⁻¹; koff [8]: 0.00373 s⁻¹; kon [8]: 155000 M⁻¹ s⁻¹; Kd [9]: 0.92 µM |
| IL10::GL1 xceptor (Fc fusion) SPGQGTQSENSCTHFPGNLPNMLRDLRDAFSRVKTFFQMKDQLDNLLLKESLLEDFKGYLGCQALSEMIQFYLEEVMPQAENQDPDIKAHVNSLGENLKTLRLRLRRCHRFLPCENKSKAVEQVKNAFNKLQEKGIYKAMSEFDIFINYIEAYITMKIRNLEPKSSDKTHTCPPCPAPEAAGAPSVFLFPPKPKDTLMISRTPEVTCVVVDVSHEDPEVKFNWYVDGVEVHNAKTKPREEQYNSTYRVVSVLTVLHQDWLNGKAYACAVSNKALPAPIEKTISKAKGQPREPQVYTLPPSRDELTKNQVSLTCLVKGFYPSDIAVEWESNGQPENNYKTTPPVLDSDGSFFLYSKLTVDKSRWQQGNVFSCSVMHEALHNHYTQKSLSLSPGNSLFNQEVQIPLTESYSPNSEVQLVESAGGLVQPGRSLKLSCAASGFTFSDYYMAWVRQAPTKGLEWVATISHDGSSTYYRDSVKGRFTISRDNAKTILYLQMDSLRSEDTATYFCARQNIMDYWGQGVMVTVSSGGGGSGGGGSGGGGSGGGGSDIVMTQTPSSQAVSAGEKVTMSCKSSQSLLYSRDQSNYLAWYQQKPGQSPKLLIYLASTRESGVPDRFIGSGSGTDFTLTISSVQAEDLADYYCQQHYNYPLTFGSGTKLEIK |  | 0.0271 | 0.088 | 4.4e-05 | 67300 | Kd [10]: 0.0951 µM |

Now from value to binder, other results behind:

| binding result [1] | Second Site ka [3] [s⁻¹] | Second Site kd [3] [s⁻¹] | koff [5] [s⁻¹] | kon [5] [M⁻¹ s⁻¹] | Binder | further results |
| --- | --- | --- | --- | --- | --- | --- |
| no binding |  |  |  |  | FUN1-12 humanized FUN1 SMIP (Fc fusion) EVQLVQSGAEVKKPGATVKISCKVSGYTFTDYNMNWVQQAPGKGLEWMGNIDPYYGGTSYNQKFKGRVTITADTSTDTAYMELSSLRSEDTAVYYCATWDYRYDDGRAYYVMDFWGQGTTVTVSSGGGGSGGGGSGGGGSGGGGSDIQMTQSPSSLSASVGDRVTITCKSSQSVLYSSNQKNYLAWYQQKPGKVPKLLIYWASTRESGVPSRFSGSGSGTDFTLTISSLQPEDVATYYCHQYLYSWTFGQGTKLEIKRLEPKSSDKTHTCPPCPAPEAAGAPSVFLFPPKPKDTLMISRTPEVTCVVVDVSHEDPEVKFNWYVDGVEVHNAKTKPREEQYNSTYRVVSVLTVLHQDWLNGKAYACAVSNKALPAPIEKTISKAKGQPREPQVYTLPPSRDELTKNQVSLTCLVKGFYPSDIAVEWESNGQPENNYKTTPPVLDSDGSFFLYSKLTVDKSRWQQGNVFSCSVMHEALHNHYTQKSLSLSPG |  |
| no binding |  |  |  |  | FUN1-32 humanized FUN1 SMIP (Fc fusion, SMIP: scFv-hinge-Fc single chain) QVQLVESGGGLVKPGGSLRLSCAASGFTFSDYNMNWIRQAPGKGLEWVSNIDPYYGGTSYNQKFKGRFTISRDNAKNSLYLQMNSLRAEDTAVYYCARWDYRYDDGRAYYVMDFWGQGTTVTVSSGGGGSGGGGSGGGGSGGGGSDIQMTQSPSSLSASVGDRVTITCKSSQSVLYSSNQKNYLAWYQQKPGKVPKLLIYWASTRESGVPSRFSGSGSGTDFTLTISSLQPEDVATYYCHQYLYSWTFGQGTKLEIKRLEPKSSDKTHTCPPCPAPEAAGAPSVFLFPPKPKDTLMISRTPEVTCVVVDVSHEDPEVKFNWYVDGVEVHNAKTKPREEQYNSTYRVVSVLTVLHQDWLNGKAYACAVSNKALPAPIEKTISKAKGQPREPQVYTLPPSRDELTKNQVSLTCLVKGFYPSDIAVEWESNGQPENNYKTTPPVLDSDGSFFLYSKLTVDKSRWQQGNVFSCSVMHEALHNHYTQKSLSLSPG |  |
